Assay results published in PMC2718698, “The TCL1A Oncoprotein Interacts Directly with the NF-κB Inhibitor IκB” (PLoS ONE, 2009).

Tests used:
[1] = molecular target: all-cysteine-to-serine (7CS) mutant of the IκBα ankyrin domain, IκB(67–302)7CS (human) (UniProt P25963); test: ITC; TCL1A (470 µM) injected into IκB_ank^7CS (45 µM) in the cell; 20°C; 10 mM Tris pH 7.4, 300 mM NaCl, 1 mM β-mercapto ethanol
[2] = molecular target: 1:1 TCL1A:IκB_ank^7CS complex (human) (UniProt P56279); test: ITC; AKT_PH (490 µM) injected into TCL1A (40 µM) or into equimolar TCL1A and IκB_ank^7CS in the cell; 20°C; 20 mM sodium phosphate pH 7.1, 300 mM NaCl, 2 mM EGTA, 1 mM β-mercapto ethanol
[3] = molecular target: T1, T cell leukaemia/lymphoma 1A (TCL1A), purified recombinant human protein (human, UniProt P56279 1-114); test: as above; conditions: both partners purified
T1 construct: TCL1A, human; 7 N-terminal residues are not seen in the crystal structure 1JSG
T1 sequence (P56279 whole entry): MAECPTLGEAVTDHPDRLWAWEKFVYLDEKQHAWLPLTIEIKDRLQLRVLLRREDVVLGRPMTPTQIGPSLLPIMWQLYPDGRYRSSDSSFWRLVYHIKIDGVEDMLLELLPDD

T cell leukaemia/lymphoma 1A (TCL1A), purified recombinant human protein (from UniProt P56279 1-114) (natural protein), sequence (P56279 whole entry): as above

| dH [1] [kcal/mol] | stoichiometry N [1] | Kd [2] [µM] | dH [2] [kcal/mol] | stoichiometry N [2] | dH [3] [kcal/mol] | stoichiometry N [3] | Molecule |
| --- | --- | --- | --- | --- | --- | --- | --- |
| -12.7 | 0.9 | – | – | – | – | – | T cell leukaemia/lymphoma 1A (TCL1A), purified recombinant human protein (from UniProt P56279 1-114) (natural protein) |
| – | – | 5.1 | -9.32 | 0.7 | -14.6 ± 0.598 | 0.7 ± 0.3 | AKTβ PH domain, human AKTβ PH(1–118) (domain or fragment, UniProt P31751 1-118, looked up) MNEVSVIKEGWLHKRGEYIKTWRPRYFLLKSDGSFIGYKERPEAPDQTLPPLNNFSVAECQLMKTERPRPNTFVIRCLQWTTVIERTFHVDSPDEREEWMRAIQMVANSLKQRAPGED |
